Data from publication PMC2475631.
Substitutions are numbered along the chain they refer to.

T1: MRF4 (Rattus norvegicus, UniProt P19335 1-242)
T1 sequence: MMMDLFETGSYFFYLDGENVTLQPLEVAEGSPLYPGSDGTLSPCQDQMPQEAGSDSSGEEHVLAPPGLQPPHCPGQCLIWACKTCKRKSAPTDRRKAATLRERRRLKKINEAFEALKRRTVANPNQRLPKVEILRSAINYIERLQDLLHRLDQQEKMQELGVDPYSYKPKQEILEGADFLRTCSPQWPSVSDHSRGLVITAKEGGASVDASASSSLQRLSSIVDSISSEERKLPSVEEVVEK

T2: Myogenin;E47 (Rattus norvegicus;Mus musculus, UniProt P20428;P15806-2 1-287;1-648, |)
T2 sequence 1: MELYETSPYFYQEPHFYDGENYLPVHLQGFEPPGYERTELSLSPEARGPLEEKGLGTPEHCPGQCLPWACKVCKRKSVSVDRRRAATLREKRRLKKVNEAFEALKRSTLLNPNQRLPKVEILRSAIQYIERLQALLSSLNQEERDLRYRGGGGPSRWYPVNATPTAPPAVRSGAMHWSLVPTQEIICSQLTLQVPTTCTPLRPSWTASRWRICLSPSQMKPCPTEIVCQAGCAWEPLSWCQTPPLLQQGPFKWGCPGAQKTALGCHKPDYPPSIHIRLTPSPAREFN
T2 sequence 2: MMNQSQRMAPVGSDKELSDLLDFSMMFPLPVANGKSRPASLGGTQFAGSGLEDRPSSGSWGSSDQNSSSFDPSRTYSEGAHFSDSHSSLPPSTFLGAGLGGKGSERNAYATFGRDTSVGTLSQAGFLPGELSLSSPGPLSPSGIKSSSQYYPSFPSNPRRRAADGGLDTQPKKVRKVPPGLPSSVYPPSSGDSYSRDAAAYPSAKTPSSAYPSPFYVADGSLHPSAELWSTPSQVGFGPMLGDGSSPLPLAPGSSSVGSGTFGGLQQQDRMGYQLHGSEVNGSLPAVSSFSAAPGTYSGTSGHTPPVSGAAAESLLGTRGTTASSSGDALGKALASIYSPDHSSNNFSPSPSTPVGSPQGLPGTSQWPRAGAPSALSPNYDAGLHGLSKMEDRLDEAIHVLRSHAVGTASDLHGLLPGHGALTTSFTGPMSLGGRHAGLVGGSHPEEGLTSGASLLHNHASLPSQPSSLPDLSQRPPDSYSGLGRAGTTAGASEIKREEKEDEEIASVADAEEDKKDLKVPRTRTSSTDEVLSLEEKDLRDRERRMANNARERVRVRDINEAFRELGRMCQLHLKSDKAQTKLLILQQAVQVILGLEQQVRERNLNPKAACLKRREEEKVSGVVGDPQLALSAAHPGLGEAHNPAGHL

T3: Myogenin (Rattus norvegicus, UniProt P20428 1-287)
T3 sequence: T2 sequence 1

T4: MRF4;E47 (Rattus norvegicus;Mus musculus, UniProt P19335;P15806-2 1-242;1-648, |)
T4 sequence 1: T1 sequence
T4 sequence 2: T2 sequence 2

T5: Myogenin/MyoDb chimera (Rattus norvegicus; Mus musculus basic …, UniProt P20428 1-73+P10085:102-121+94-287, internal_change)
T5 sequence: T2 sequence 1 with S77T, V78T, S79N, V80A, R84K, L88M, K91R

T6: mut-Myogenin (Rattus norvegicus, UniProt P20428 1-287, R84K;K91R)
T6 sequence: T2 sequence 1 with R84K, K91R

B1: E-box DNA (dsDNA)
DNA 1: TCGATCCCCCAACACCTGCTGCCTGA
DNA 2: TCAGGCAGCAGGTGTTGGGGGACGA
B2: G'2 integrin DNA (structured_DNA)
DNA: CATGGGGGCGGGAAGGGGCGGGGTCT
B3: G'2 sMtCK DNA (structured_DNA)
DNA: CTGAGGAGGGGCTGGAGGGACCAC

Key:
Test in all cases: EMSA
MRF4 = biological target: T1, MRF4
Myogenin;E47 [1] = biological target: T2, Myogenin;E47
Myogenin = biological target: T3, Myogenin
MyoD;E47 [2] = biological target: T7, MyoD;E47 (Mus musculus;Mus musculus, UniProt P10085;P15806-2 1-318;1-648, |)
MyoD = MyoD (Mus musculus, UniProt P10085 1-318)
MRF4;E47 = biological target: T4, MRF4;E47
MyoD/Myogeninb chimera = MyoD/Myogeninb chimera (Mus musculus; Rattus norvegicus basic …, UniProt P10085 1-101+P20428:74-93+122-318, internal_change)
Myogenin/MyoDb chimera = biological target: T5, Myogenin/MyoDb chimera
mut-Myogenin = biological target: T6, mut-Myogenin
Myogenin;E47 [3] = biological target: T2, Myogenin;E47; remark: listed apart in the source
MyoD;E47 [4] = biological target: T7, MyoD;E47; remark: listed apart in the source

Binder	Kd (MRF4)	Kd (Myogenin;E47 [1])	Kd (Myogenin)	Kd (MyoD;E47 [2])	Kd (MyoD)	Kd (MRF4;E47)	Kd (MyoD/Myogeninb chimera)	Kd (Myogenin/MyoDb chimera)	binding result (mut-Myogenin)	binding result (MRF4)	binding signal (Myogenin;E47 [3])	binding signal (MyoD;E47 [4])
B1	21.3 ± 11 nM	0.2 ± 0.1 nM	25.4 ± 11 nM	1.7 ± 0.6 nM	91.8 ± 1.6 nM	0.2 ± 0.1 nM						
B2	5.3 ± 1.3 nM	8.5 ± 2 nM	30 ± 8 nM	11.2 ± 4.3 nM	4.4 ± 2.5 nM	19.5 ± 2.7 nM	6 ± 3.1 nM	7.1 ± 1.9 nM	binds			
B3										binds	128 fold weaker than E-box	15 fold weaker than E-box
